# According to PMC12416549 (2024):
# T1: TNFR1 (Homo sapiens, UniProt P19438)
# T1 chain: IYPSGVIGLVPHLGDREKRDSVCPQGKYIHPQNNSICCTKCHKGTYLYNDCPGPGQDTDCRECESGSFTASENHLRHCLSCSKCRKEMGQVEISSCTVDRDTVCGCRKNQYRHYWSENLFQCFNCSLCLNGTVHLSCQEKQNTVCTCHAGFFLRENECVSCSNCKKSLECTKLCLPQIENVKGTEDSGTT
# Target: T1, TNFR1
# Experiment: yeast display SC50
row,apparent Kd (screen),Binder
1,3.99 nM,A106M (designed binder) SMEEEVEKAAKEYEKKKKEAIEKHLEKLKAKDKEAAERFLKELEEAAKEYAKDEAKTMSEEEAKRRAKKYKEKVLLSELSEEEQKEIKEAEEKLVRTILKYVEEAMK
2,0.446 nM,E26D (designed binder) SMEEEVEKAAKEYEKKKKEAIEKHLDKLKAKDKEAAERFLKELEEAAKEYAKDEAKTMSEEEAKRRAKKYKEKVLLSELSEEEQKEIKEAEEKLVRTILKYVEEAAK
3,1.05 nM,A106N (designed binder) SMEEEVEKAAKEYEKKKKEAIEKHLEKLKAKDKEAAERFLKELEEAAKEYAKDEAKTMSEEEAKRRAKKYKEKVLLSELSEEEQKEIKEAEEKLVRTILKYVEEANK
4,0.446 nM,A36E (designed binder) SMEEEVEKAAKEYEKKKKEAIEKHLEKLKAKDKEAEERFLKELEEAAKEYAKDEAKTMSEEEAKRRAKKYKEKVLLSELSEEEQKEIKEAEEKLVRTILKYVEEAAK
5,1.4 nM,A105C (designed binder) SMEEEVEKAAKEYEKKKKEAIEKHLEKLKAKDKEAAERFLKELEEAAKEYAKDEAKTMSEEEAKRRAKKYKEKVLLSELSEEEQKEIKEAEEKLVRTILKYVEECAK
6,11.4 nM,E91Q (designed binder) SMEEEVEKAAKEYEKKKKEAIEKHLEKLKAKDKEAAERFLKELEEAAKEYAKDEAKTMSEEEAKRRAKKYKEKVLLSELSEEEQKEIKEAQEKLVRTILKYVEEAAK
7,1.16 nM,E86G (designed binder) SMEEEVEKAAKEYEKKKKEAIEKHLEKLKAKDKEAAERFLKELEEAAKEYAKDEAKTMSEEEAKRRAKKYKEKVLLSELSEEEQKGIKEAEEKLVRTILKYVEEAAK
8,2.73 nM,E45I (designed binder) SMEEEVEKAAKEYEKKKKEAIEKHLEKLKAKDKEAAERFLKELEIAAKEYAKDEAKTMSEEEAKRRAKKYKEKVLLSELSEEEQKEIKEAEEKLVRTILKYVEEAAK
9,0.718 nM,K68S (designed binder) SMEEEVEKAAKEYEKKKKEAIEKHLEKLKAKDKEAAERFLKELEEAAKEYAKDEAKTMSEEEAKRRASKYKEKVLLSELSEEEQKEIKEAEEKLVRTILKYVEEAAK
10,11.4 nM,R66Q (designed binder) SMEEEVEKAAKEYEKKKKEAIEKHLEKLKAKDKEAAERFLKELEEAAKEYAKDEAKTMSEEEAKRQAKKYKEKVLLSELSEEEQKEIKEAEEKLVRTILKYVEEAAK
11,0.49 nM,K52A (designed binder) SMEEEVEKAAKEYEKKKKEAIEKHLEKLKAKDKEAAERFLKELEEAAKEYAADEAKTMSEEEAKRRAKKYKEKVLLSELSEEEQKEIKEAEEKLVRTILKYVEEAAK
12,0.956 nM,E89N (designed binder) SMEEEVEKAAKEYEKKKKEAIEKHLEKLKAKDKEAAERFLKELEEAAKEYAKDEAKTMSEEEAKRRAKKYKEKVLLSELSEEEQKEIKNAEEKLVRTILKYVEEAAK
13,0.49 nM,M2H (designed binder) SHEEEVEKAAKEYEKKKKEAIEKHLEKLKAKDKEAAERFLKELEEAAKEYAKDEAKTMSEEEAKRRAKKYKEKVLLSELSEEEQKEIKEAEEKLVRTILKYVEEAAK
14,15.2 nM,L99P (designed binder) SMEEEVEKAAKEYEKKKKEAIEKHLEKLKAKDKEAAERFLKELEEAAKEYAKDEAKTMSEEEAKRRAKKYKEKVLLSELSEEEQKEIKEAEEKLVRTIPKYVEEAAK
15,0.539 nM,K88F (designed binder) SMEEEVEKAAKEYEKKKKEAIEKHLEKLKAKDKEAAERFLKELEEAAKEYAKDEAKTMSEEEAKRRAKKYKEKVLLSELSEEEQKEIFEAEEKLVRTILKYVEEAAK
16,5.84 nM,K73D (designed binder) SMEEEVEKAAKEYEKKKKEAIEKHLEKLKAKDKEAAERFLKELEEAAKEYAKDEAKTMSEEEAKRRAKKYKEDVLLSELSEEEQKEIKEAEEKLVRTILKYVEEAAK
17,2.73 nM,D32L (designed binder) SMEEEVEKAAKEYEKKKKEAIEKHLEKLKAKLKEAAERFLKELEEAAKEYAKDEAKTMSEEEAKRRAKKYKEKVLLSELSEEEQKEIKEAEEKLVRTILKYVEEAAK
18,0.956 nM,K18D (designed binder) SMEEEVEKAAKEYEKKKDEAIEKHLEKLKAKDKEAAERFLKELEEAAKEYAKDEAKTMSEEEAKRRAKKYKEKVLLSELSEEEQKEIKEAEEKLVRTILKYVEEAAK

row,apparent Kd (screen),Binder
1,0.869 nM,A30C (designed binder) SMEEEVEKAAKEYEKKKKEAIEKHLEKLKCKDKEAAERFLKELEEAAKEYAKDEAKTMSEEEAKRRAKKYKEKVLLSELSEEEQKEIKEAEEKLVRTILKYVEEAAK
2,22.2 nM,M58G (designed binder) SMEEEVEKAAKEYEKKKKEAIEKHLEKLKAKDKEAAERFLKELEEAAKEYAKDEAKTGSEEEAKRRAKKYKEKVLLSELSEEEQKEIKEAEEKLVRTILKYVEEAAK
3,0.653 nM,M58P (designed binder) SMEEEVEKAAKEYEKKKKEAIEKHLEKLKAKDKEAAERFLKELEEAAKEYAKDEAKTPSEEEAKRRAKKYKEKVLLSELSEEEQKEIKEAEEKLVRTILKYVEEAAK
4,1.69 nM,A35N (designed binder) SMEEEVEKAAKEYEKKKKEAIEKHLEKLKAKDKENAERFLKELEEAAKEYAKDEAKTMSEEEAKRRAKKYKEKVLLSELSEEEQKEIKEAEEKLVRTILKYVEEAAK
5,1.86 nM,A51S (designed binder) SMEEEVEKAAKEYEKKKKEAIEKHLEKLKAKDKEAAERFLKELEEAAKEYSKDEAKTMSEEEAKRRAKKYKEKVLLSELSEEEQKEIKEAEEKLVRTILKYVEEAAK
6,1.54 nM,S80K (designed binder) SMEEEVEKAAKEYEKKKKEAIEKHLEKLKAKDKEAAERFLKELEEAAKEYAKDEAKTMSEEEAKRRAKKYKEKVLLSELKEEEQKEIKEAEEKLVRTILKYVEEAAK
7,0.49 nM,L43A (designed binder) SMEEEVEKAAKEYEKKKKEAIEKHLEKLKAKDKEAAERFLKEAEEAAKEYAKDEAKTMSEEEAKRRAKKYKEKVLLSELSEEEQKEIKEAEEKLVRTILKYVEEAAK
8,0.446 nM,V74P (designed binder) SMEEEVEKAAKEYEKKKKEAIEKHLEKLKAKDKEAAERFLKELEEAAKEYAKDEAKTMSEEEAKRRAKKYKEKPLLSELSEEEQKEIKEAEEKLVRTILKYVEEAAK
9,0.49 nM,V102A (designed binder) SMEEEVEKAAKEYEKKKKEAIEKHLEKLKAKDKEAAERFLKELEEAAKEYAKDEAKTMSEEEAKRRAKKYKEKVLLSELSEEEQKEIKEAEEKLVRTILKYAEEAAK
10,1.54 nM,L76P (designed binder) SMEEEVEKAAKEYEKKKKEAIEKHLEKLKAKDKEAAERFLKELEEAAKEYAKDEAKTMSEEEAKRRAKKYKEKVLPSELSEEEQKEIKEAEEKLVRTILKYVEEAAK
11,2.05 nM,L79F (designed binder) SMEEEVEKAAKEYEKKKKEAIEKHLEKLKAKDKEAAERFLKELEEAAKEYAKDEAKTMSEEEAKRRAKKYKEKVLLSEFSEEEQKEIKEAEEKLVRTILKYVEEAAK
12,0.539 nM,I21E (designed binder) SMEEEVEKAAKEYEKKKKEAEEKHLEKLKAKDKEAAERFLKELEEAAKEYAKDEAKTMSEEEAKRRAKKYKEKVLLSELSEEEQKEIKEAEEKLVRTILKYVEEAAK
13,9.41 nM,E91G (designed binder) SMEEEVEKAAKEYEKKKKEAIEKHLEKLKAKDKEAAERFLKELEEAAKEYAKDEAKTMSEEEAKRRAKKYKEKVLLSELSEEEQKEIKEAGEKLVRTILKYVEEAAK
14,0.956 nM,Y50C (designed binder) SMEEEVEKAAKEYEKKKKEAIEKHLEKLKAKDKEAAERFLKELEEAAKECAKDEAKTMSEEEAKRRAKKYKEKVLLSELSEEEQKEIKEAEEKLVRTILKYVEEAAK
15,3.99 nM,R96Y (designed binder) SMEEEVEKAAKEYEKKKKEAIEKHLEKLKAKDKEAAERFLKELEEAAKEYAKDEAKTMSEEEAKRRAKKYKEKVLLSELSEEEQKEIKEAEEKLVYTILKYVEEAAK
16,1.16 nM,K27W (designed binder) SMEEEVEKAAKEYEKKKKEAIEKHLEWLKAKDKEAAERFLKELEEAAKEYAKDEAKTMSEEEAKRRAKKYKEKVLLSELSEEEQKEIKEAEEKLVRTILKYVEEAAK
17,0.79 nM,K93A (designed binder) SMEEEVEKAAKEYEKKKKEAIEKHLEKLKAKDKEAAERFLKELEEAAKEYAKDEAKTMSEEEAKRRAKKYKEKVLLSELSEEEQKEIKEAEEALVRTILKYVEEAAK
